Literature values as cited in US20260109963A1, “COMPOSITIONS, SYSTEMS, AND METHODS FOR REDUCING ADIPOSE TISSUE” (Oisin Biotechnologies, Inc., priority 2023, published 2026).

Tested on: Heart
Details: almost completely abrogated after IV delivery

B1: miR1d: miRNA/target site de-targeting heart & skeletal muscle (nucleic acid)
chain: GGCCGGCCAATACATACTTCTTTACATTCCACGATAATACATACTTCTTTACATTCCAACCGGTAATACATACTTCTTTACATTCCATCACAATACATACTTCTTTACATTCCAGGCCGGCC
modifications: listed as DNA, chemistry not fully specified; the letters are possibly those of the target site
notes: miRNA/target site de-targeting heart & skeletal muscle
- transgene expression in heart (in words): Transgene expression in heart almost
